Laboratory results published in patent US9789203B2, “cKIT antibody drug conjugates” (Novartis AG, priority 2013, dated 2017).

Experiments:
[1] = tested on: HAMLX5343 systemic primary AML xenograft; assay: In vivo efficacy, HAMLX5343 systemic primary AML xenograft
Method: (§4) Female NSG mice were implanted systemically (via tail vein injection) with 5×10^6 cells in phosphate buffered saline.
(§5) Leukemic burden was measured by flow cytometry. Weekly, blood was collected from all study animals via the tail. […] The stained cells were analyzed on a FACS Canto flow cytometer (BD Biosciences) (FIG. 52A). Body weights were measured twice weekly (FIG. 52B).

[2] = tested on: HAMLX5343 systemic primary AML xenograft; details: mouse, in vivo, ip
Method: as §4, §5

GIST cell lines = details: Edris et al. 2013; cited from earlier work
Uke-1 cells = assay: ADCC activity in vitro (Calcein release, NK3.3 effector cells); assay type: cell-based, human; details: Uke-1 target cells, NK3.3 effector cells 20 to 1, FIG. 17
Method: In brief, Uke-1 cells were stained with Calcein acetoxy-methyl ester (Calcein-AM; Sigma-Aldrich catalog #17783-5MG, St. Louis, Mo.), washed twice, pipetted into a 96-well microtiterplate (96 well, U-bottomed, clear plastic; Corning Costar, catalog #650 160, Tewksbury, Mass.) at a concentration of 5000 cells per well and pre-incubated for 10 min with a serial dilution of the above mentioned antibodies and proteins (from 50,000 to 0.003 μg per ml) before adding the effector NK3.3 cells for 1 hour in an effector to target ratio of 20 to 1. In order to calculate the antibody specific lysis of the target cells, a parallel incubation of target cells only without antibody or effector cells served as a baseline and negative control, whereas the positive control or maximal lysis or hundred percent specific lysis was determined by lysis of target cells only with a 1% Triton-X 100 solution. […] Following a co-incubation of target and effector cells, the microtiterplate was centrifuged and an aliquot of the supernatant fluid was transferred to another microtiterplate (96 well, flat-bottomed, black with clear bottom; (Corning Costar, catalog #3904, Tewksbury, Mass.) and the concentration of free Calcein in solution was determined with a fluorescence counter (Victor 3® multilabel counter, Perkin Elmer, Waltham, Mass.).

SCF binding to cKIT = SCF binding to cKIT (Homo sapiens, UniProt P10721); assay: Competition assays using ELISA and FACS, SCF binding to cKIT
rat cKIT ECD = assay: SPR (Biacore 2000) affinity measurement; assay type: binding; details: 25° C., antibody captured, ECD in solution
Method: (§1) Affinity of the antibodies to cKIT species orthologues and also to cKIT was determined using SPR technology using a Biacore® 2000 instrument (GE Healthcare, Pittsburgh, Pa.) and with CM5 sensor chips.
(§2) Briefly, HBS-P (0.01 M HEPES, pH 7.4, 0.15 M NaCl, 0.005% Surfactant P20) supplemented with 2% Odyssey® blocking buffer (Li-Cor Biosciences, Lincoln, Nebr.) was used as the running buffer for all the experiments. The immobilization level and analyte interactions were measured by response unit (RU). Pilot experiments were performed to test and confirm the feasibility of the immobilization of the anti-human Fc antibody (Catalog number BR100839, GE Healthcare, Pittsburgh, Pa.) and the capture of the test antibodies.
(§3) For kinetic measurements, the experiments were performed in which the antibodies were captured to the sensor chip surface via the immobilized anti-human Fc antibody and the ability of the cKIT proteins to bind in free solution was determined Briefly, 25 μg/ml of anti-human Fc antibody at pH 5 was immobilized on a CM5 sensor chip through amine coupling at flow rate of 5 μl/minute on all two flow cells to reach 10,500 RUs. 0.1-1 μg/ml of test antibodies were then injected at 10 μl/min for 1 minute. Captured levels of the antibodies were generally kept below 200 RUs. Subsequently, 3.125-50 nM of cKIT receptor extracellular domains (ECD) were diluted in a 2-fold series and injected at a flow rate of 40 μl/min for 3 min over both reference and test flow cells. Table of tested ECDs is listed below. Dissociation of the binding was followed for 10 min. After each injection cycle, the chip surface was regenerated with 3 M MgCl2 at 10 μl/min for 30 s.

mouse cKIT ECD = biological target: T1, mouse cKIT ECD (Mus musculus, UniProt P05532); assay: SPR (Biacore 2000) affinity measurement; assay type: binding; details: 25° C., antibody captured, ECD in solution
T1 construct: 3.125-50 nM of cKIT receptor extracellular domains (ECD) were diluted in a 2-fold series
T1 sequence (P05532 25-527 limits assumed): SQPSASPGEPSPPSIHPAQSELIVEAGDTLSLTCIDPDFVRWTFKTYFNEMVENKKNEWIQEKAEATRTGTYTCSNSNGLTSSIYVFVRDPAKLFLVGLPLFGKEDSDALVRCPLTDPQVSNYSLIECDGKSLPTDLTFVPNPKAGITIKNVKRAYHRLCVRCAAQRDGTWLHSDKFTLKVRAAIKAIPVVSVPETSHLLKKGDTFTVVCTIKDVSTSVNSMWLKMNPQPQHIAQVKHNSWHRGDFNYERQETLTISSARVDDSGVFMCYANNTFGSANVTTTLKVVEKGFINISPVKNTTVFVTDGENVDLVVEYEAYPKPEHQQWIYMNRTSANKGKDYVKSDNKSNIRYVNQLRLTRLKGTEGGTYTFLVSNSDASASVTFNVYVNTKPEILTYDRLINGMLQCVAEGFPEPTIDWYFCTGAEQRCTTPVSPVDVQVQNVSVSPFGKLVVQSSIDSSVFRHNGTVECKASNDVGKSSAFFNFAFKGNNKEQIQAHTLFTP
Method: as §1, §2, §3

[3] = tested on: GIST T1 subcutaneous tumor xenograft; details: GIST T1, SCID-beige mice, single i.v. dose 10 mg/kg
Method: The anti-tumor activity of anti-cKIT ADCs was evaluated in several tumor xenograft models.

[4] = HAMLX5343, Day 71, 50 mg/kg Daily x 6 days, intraperitoneally

Sequence of rat cKIT ECD (as listed by the source): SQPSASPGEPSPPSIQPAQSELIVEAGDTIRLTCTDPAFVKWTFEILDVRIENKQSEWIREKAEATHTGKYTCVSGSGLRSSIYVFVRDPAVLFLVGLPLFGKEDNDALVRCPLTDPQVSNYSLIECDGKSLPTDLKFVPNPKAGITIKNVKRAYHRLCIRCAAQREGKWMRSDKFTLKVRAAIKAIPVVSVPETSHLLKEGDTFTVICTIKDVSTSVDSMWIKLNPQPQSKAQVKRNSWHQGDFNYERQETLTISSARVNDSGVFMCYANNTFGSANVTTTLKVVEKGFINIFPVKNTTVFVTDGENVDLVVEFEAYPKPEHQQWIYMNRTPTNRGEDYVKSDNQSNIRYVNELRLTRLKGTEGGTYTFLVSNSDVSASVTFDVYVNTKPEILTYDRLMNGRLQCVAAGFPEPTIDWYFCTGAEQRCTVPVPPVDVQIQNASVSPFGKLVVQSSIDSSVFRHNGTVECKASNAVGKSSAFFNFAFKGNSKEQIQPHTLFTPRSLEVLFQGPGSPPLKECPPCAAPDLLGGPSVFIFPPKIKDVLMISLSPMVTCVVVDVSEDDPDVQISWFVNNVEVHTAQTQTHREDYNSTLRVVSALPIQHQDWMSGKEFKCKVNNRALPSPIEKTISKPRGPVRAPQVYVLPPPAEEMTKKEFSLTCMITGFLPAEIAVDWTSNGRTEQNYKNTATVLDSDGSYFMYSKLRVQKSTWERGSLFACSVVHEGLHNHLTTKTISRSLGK
Sequence of SCF binding to cKIT (P10721 26-976): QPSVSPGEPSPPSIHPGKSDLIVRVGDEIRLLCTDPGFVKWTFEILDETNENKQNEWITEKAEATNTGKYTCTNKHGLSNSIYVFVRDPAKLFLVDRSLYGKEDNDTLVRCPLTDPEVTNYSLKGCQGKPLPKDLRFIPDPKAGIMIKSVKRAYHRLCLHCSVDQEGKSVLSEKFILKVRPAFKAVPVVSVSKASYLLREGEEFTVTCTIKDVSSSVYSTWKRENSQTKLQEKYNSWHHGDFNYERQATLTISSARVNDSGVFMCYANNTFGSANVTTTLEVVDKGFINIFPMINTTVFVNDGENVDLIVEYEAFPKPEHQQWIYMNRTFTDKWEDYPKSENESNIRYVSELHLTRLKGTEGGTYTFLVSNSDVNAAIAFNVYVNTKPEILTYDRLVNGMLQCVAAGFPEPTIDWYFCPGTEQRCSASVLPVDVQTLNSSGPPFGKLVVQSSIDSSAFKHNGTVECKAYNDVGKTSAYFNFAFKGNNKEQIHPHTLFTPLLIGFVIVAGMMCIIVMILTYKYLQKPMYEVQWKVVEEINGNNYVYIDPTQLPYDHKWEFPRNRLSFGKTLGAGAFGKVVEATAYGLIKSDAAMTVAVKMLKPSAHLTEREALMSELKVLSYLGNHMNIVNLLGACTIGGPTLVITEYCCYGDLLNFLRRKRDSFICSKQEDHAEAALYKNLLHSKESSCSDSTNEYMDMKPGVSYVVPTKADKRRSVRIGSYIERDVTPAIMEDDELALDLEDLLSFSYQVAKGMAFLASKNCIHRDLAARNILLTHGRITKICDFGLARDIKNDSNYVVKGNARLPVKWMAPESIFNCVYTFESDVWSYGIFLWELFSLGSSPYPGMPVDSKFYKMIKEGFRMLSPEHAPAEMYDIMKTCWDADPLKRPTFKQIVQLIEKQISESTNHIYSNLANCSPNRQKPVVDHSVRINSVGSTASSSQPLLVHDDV

## Nc1ccn([C@@H]2O[C@H](CO)[C@@H](O)[C@@H]2O)c(=O)n1 [ARA-C, cytarabine, reference compound]
[1]; [4]
  Mean change of body weight (from day 67): 2.3 ± 2.3 % ± SEM
  Mean change of tumor volume: −6.6 ± 2.1 % CD45 positive PBMC's ± SEM
  Regression: −52.5%
[1]; HAMLX5343, intraperitoneally daily for 6 days
  antitumor activity (leukemic burden): efficacious in three of the animals
[1]; HAMLX5343, intraperitoneally daily for 6 days, three of six animals
  bodyweight loss: > 20%
[2]
  toxicity: highly toxic

## Cc1ccc(NC(=O)c2ccc(CN3CCN(C)CC3)cc2)cc1Nc1nccc(-c2cccnc2)n1 [Imatinib]
GIST cell lines
  cell proliferation: significantly reduce proliferation of GIST cell lines

## MabCampath [reference compound]
Uke-1 cells
  ADCC: mediated ADCC killing of the target cells

B1: 9P3: hybridoma derived anti-cKIT antibody, VH SEQ ID NO.9, VL SEQ ID NO.18 (antibody, V domains shown)
VH: EVRLVESEGGLVQPRSSMKLSCTASGFTFSDYYMAWVRQVPEKGLEWVANINYDGSSTYYLDSLKSRFIISRDNAKNILYLQMSSLKSEDTATYYCARGDYYGTTYWYFDVWGTGTTVTVSS
VL: DIQMTQTTSSLSASLGDRVTISCRASQDISNYLNWYQQKPDGTVKLLIYYTSRLQSGVPSRFSGSGSGTDYSLTISNLEQEDIATYFCQQGKKLWSFGGGTKLEIKR
SCF binding to cKIT
  blocking of SCF binding to cKIT: partial blocking
Rat cKIT ECD
  Affinity to rat cKIT: Not reactive
Mouse cKIT ECD
  Affinity mouse cKIT: Not reactive
[3]
  antitumor activity (tumor volume): Neither the control non-specific IgG1 ADCs nor the unconjugated 9P3 were efficacious

B2: NEG026: anti-cKIT antibody of Table 1, VH SEQ ID NO 46, VL SEQ ID NO 55 (antibody, V domains shown)
VH: EVQLVESGGGLVQPGGSLRLSCAASGFTFSDYYMAWVRQAPGKGLEWVANINQNTGSTYYVDSVQGRFTISRDNAKNSLYLQMNSLRAEDTAVYYCARGDYYGTTYWYFDVWGQGTTVTVSS
VL: EIVMTQSPATLSLSPGERATLSCRASQDISNYLNWYQQKPGQAPRLLIYYTSRLQSGIPARFSGSGSGTDYTLTISSLEPEDFAVYYCQQGKKLWSFGGGTKVEIK
Rat cKIT ECD
  Affinity to rat cKIT: Not reactive
Mouse cKIT ECD
  Affinity mouse cKIT: Not reactive

B3: NEG027: anti-cKIT antibody of Table 1, VH SEQ ID NO 64, VL SEQ ID NO 73 (antibody, V domains shown)
VH: EVQLVESGGGLVQPGGSLRLSCAASGFTFSDYYMAWVRQAPGKGLEWVASINQNTGSTYYLDSVRGRFTISRDNAKNSLYLQMNSLRAEDTAVYYCARGDYYGTTYWYFDVWGQGTTVTVSS
VL: EIVMTQSPATLSLSPGERATLSCRASQDISNYLNWYQQKPGQAPRLLIYYTSRLQSGIPARFSGSGSGTDYTLTISSLEPEDFAVYYCQQGKKLWSFGGGTKVEIK
Rat cKIT ECD
  Affinity to rat cKIT: Not reactive
Mouse cKIT ECD
  Affinity mouse cKIT: Not reactive

B4: NEG087: anti-cKIT antibody of Table 1, VH SEQ ID NO 118, VL SEQ ID NO 127 (antibody, V domains shown)
VH: EVQLVESGGGLVQPGGSLRLSCAASGFTFSDYYMAWVRQAPGKGLEWVASINQNTGSTYYLDSVRGRFTISRDNAKNSLYLQMNSLRAEDTAVYYCARGDYYGTTYWYFDVWGQGTTVTVSS
VL: DIQMTQSPSSLSASVGDRVTITCRASQSISSYLNWYQQKPGKAPKLLIYYTSRLQSGVPSRFSGSGSGTDFTLTISSLQPEDFATYYCQQGRRLWSFGGGTKVEIK
Rat cKIT ECD
  Affinity to rat cKIT: Not reactive
Mouse cKIT ECD
  Affinity mouse cKIT: Not reactive

B5: NEG086: anti-cKIT antibody of Table 1, VH SEQ ID NO 100, VL SEQ ID NO 109 (antibody, V domains shown)
VH: EVQLVESGGGLVQPGGSLRLSCAASGFTFSDYYMAWVRQAPGKGLEWVANINQIAGSTYYVDSVQGRFTISRDNAKNSLYLQMNSLRAEDTAVYYCARGDYYGTTYWYFDVWGQGTTVTVSS
VL: DIQMTQSPSSLSASVGDRVTITCRASQSISSYLNWYQQKPGKAPKLLIYYTSRLQSGVPSRFSGSGSGTDFTLTISSLQPEDFATYYCQQGRRLWSFGGGTKVEIK
Rat cKIT ECD
  Affinity to rat cKIT: Not reactive
Mouse cKIT ECD
  Affinity mouse cKIT: Not reactive
